Results taken from patent US20110151454.

Biological target: HA-SKP2 phosphorylated in vitro by AKT (32P-SKP2) (UniProt Q13309)
Sequence (Q13309 whole entry, looked up): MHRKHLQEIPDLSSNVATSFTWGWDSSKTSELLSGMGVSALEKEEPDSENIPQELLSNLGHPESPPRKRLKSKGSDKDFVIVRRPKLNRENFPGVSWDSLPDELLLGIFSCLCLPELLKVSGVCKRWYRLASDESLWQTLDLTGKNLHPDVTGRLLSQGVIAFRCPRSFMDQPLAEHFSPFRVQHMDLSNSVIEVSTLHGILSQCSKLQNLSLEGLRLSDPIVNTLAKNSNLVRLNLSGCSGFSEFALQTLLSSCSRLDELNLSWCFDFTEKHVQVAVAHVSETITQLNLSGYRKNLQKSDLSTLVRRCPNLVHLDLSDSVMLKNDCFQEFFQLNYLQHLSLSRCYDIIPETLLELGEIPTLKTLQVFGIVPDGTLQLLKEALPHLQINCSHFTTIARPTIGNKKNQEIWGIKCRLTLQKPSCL

Substance: flag-PTEN
- removal of 32P from AKT-phosphorylated SKP2: neither PTEN nor PPM1H exhibited any evidence of phosphatase activity on SKP2
